Substitutions are numbered along the chain they refer to.
Assays:
SiARDP [1] = target: T1, SiARDP (Setaria italica, UniProt K3Z7V1 1-332); assay: competition; versus labeled P2; signal not obviously reduced; LightShift Chemiluminescent EMSA Kit (Thermo), manufacturer's protocol; buffer, salt, pH and temperature not stated; conditions: protein: recombinant
SiARDP [2] = target: T1, SiARDP; assay: competition; versus labeled P2; LightShift Chemiluminescent EMSA Kit (Thermo), manufacturer's protocol; buffer, salt, pH and temperature not stated; conditions: protein: recombinant
SiAREB1 = target: T2, SiAREB1 (Setaria italica, UniProt K3YTM2 1-357); assay: EMSA; LightShift Chemiluminescent EMSA Kit (Thermo), manufacturer's protocol; buffer, salt, pH and temperature not stated; conditions: protein: recombinant; chain copies: 2; label: biotin
T2 sequence: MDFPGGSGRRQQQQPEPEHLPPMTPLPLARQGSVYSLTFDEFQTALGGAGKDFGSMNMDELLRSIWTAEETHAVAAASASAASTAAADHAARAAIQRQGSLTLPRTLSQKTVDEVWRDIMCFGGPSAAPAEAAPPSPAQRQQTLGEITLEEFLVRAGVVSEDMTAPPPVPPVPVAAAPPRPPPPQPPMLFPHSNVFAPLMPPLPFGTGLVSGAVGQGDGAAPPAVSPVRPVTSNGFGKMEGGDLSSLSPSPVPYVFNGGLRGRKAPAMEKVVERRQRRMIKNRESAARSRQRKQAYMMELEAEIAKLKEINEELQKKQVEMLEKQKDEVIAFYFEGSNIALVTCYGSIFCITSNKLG

SiARDP [3] = target: T1, SiARDP; assay: as above; conditions: protein: recombinant; label: biotin
SiARDP [4] = target: T1, SiARDP; assay: competition; versus labeled P1; signal not obviously reduced; LightShift Chemiluminescent EMSA Kit (Thermo), manufacturer's protocol; buffer, salt, pH and temperature not stated; conditions: protein: recombinant
SiARDP [5] = target: T1, SiARDP; assay: competition; versus labeled P1; LightShift Chemiluminescent EMSA Kit (Thermo), manufacturer's protocol; buffer, salt, pH and temperature not stated; conditions: protein: recombinant

T1 sequence (K3Z7V1 entry or part of it): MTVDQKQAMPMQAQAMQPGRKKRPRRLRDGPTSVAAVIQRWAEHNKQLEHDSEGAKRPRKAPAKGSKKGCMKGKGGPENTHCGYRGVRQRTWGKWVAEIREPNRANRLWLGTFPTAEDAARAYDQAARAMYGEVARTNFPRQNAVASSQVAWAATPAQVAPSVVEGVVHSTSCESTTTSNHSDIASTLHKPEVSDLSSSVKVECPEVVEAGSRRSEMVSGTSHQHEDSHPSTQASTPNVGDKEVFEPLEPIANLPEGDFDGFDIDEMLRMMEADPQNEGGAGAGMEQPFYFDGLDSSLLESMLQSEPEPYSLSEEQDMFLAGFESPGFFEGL

B1: competitor 4 (mutant DRE2, GCCGAC to GAAAAA) (dsDNA)
DNA 1: ATGGGTTCCTTGAAAAATCTTCTTTTAACC
DNA 2: GGTTAAAAGAAGATTTTTCAAGGAACCCAT
SiARDP [1]
  binding result: no binding

B2: competitor 3 (DRE2) (dsDNA)
DNA 1: ATGGGTTCCTTGCCGACTCTTCTTTTAACC
DNA 2: GGTTAAAAGAAGAGTCGGCAAGGAACCCAT
SiARDP [2]
  binding result: binds

B3: probe P1 (DRE1) (dsDNA)
DNA 1: GCGATGGTCCTCACCGACGACGCCGCCCGC
DNA 2: GCGGGCGGCGTCGTCGGTGAGGACCATCGC
SiAREB1
  binding result: no binding
SiARDP [3]
  binding result: binds

B4: probe P3 (ABRE) (dsDNA)
DNA 1: GCCGCGCGGGTACGTGCGAGCCCCGCGGTC
DNA 2: GACCGCGGGGCTCGCACGTACCCGCGCGGC
SiAREB1
  binding result: no binding
SiARDP [3]
  binding result: no binding

B5: competitor 2 (mutant DRE1, ACCGAC to AAAAAC) (dsDNA)
DNA 1: B3 DNA 1 with C14A, C15A, G16A
DNA 2: B3 DNA 2 with C15T, G16T, G17T
SiARDP [4]
  binding result: no binding

B6: competitor 1 (DRE1) (dsDNA)
DNA 1: B3 DNA 1
DNA 2: B3 DNA 2
SiARDP [5]
  binding result: binds

B7: probe P2 (DRE2) (dsDNA)
DNA 1: B2 DNA 1
DNA 2: B2 DNA 2
SiAREB1
  binding result: no binding

Reference: paper PMC4072699, “A Remorin Gene SiREM6, the Target Gene of SiARDP, from Foxtail Millet (Setaria italica) Promotes High Salt Tolerance in Transgenic Arabidopsis”
